The results in this text go back to US20070292409A1 (University of California, published 2007).

The target of series [1] is G protein-q/11 α-subunit (Gαq/11), endogenous protein of 3T3-L1 adipocytes (UniProt P21279).
Series [2] concerns the target T1, insulin receptor, endogenous protein of 3T3-L1 adipocytes (UniProt P15208 28-1372, limits assumed).
T1 construct: The mature receptor is made of alpha and beta chains; also called IR
The series can be described thus: co-immunoprecipitation with anti-GRK2 antibody from 3T3-L1 adipocyte lysates.

Sequence of G protein-q/11 α-subunit (Gαq/11), endogenous protein of 3T3-L1 adipocytes (P21279 whole entry): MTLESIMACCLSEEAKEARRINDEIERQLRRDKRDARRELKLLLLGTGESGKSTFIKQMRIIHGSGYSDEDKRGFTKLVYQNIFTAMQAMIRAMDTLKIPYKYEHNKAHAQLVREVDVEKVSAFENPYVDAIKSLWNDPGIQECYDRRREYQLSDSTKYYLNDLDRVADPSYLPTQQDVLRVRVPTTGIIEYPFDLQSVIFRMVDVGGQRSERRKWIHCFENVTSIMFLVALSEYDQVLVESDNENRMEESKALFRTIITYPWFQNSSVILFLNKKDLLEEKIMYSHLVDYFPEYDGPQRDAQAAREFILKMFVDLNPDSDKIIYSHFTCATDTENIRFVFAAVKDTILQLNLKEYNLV
T1 sequence (P15208 28-1372 limits assumed): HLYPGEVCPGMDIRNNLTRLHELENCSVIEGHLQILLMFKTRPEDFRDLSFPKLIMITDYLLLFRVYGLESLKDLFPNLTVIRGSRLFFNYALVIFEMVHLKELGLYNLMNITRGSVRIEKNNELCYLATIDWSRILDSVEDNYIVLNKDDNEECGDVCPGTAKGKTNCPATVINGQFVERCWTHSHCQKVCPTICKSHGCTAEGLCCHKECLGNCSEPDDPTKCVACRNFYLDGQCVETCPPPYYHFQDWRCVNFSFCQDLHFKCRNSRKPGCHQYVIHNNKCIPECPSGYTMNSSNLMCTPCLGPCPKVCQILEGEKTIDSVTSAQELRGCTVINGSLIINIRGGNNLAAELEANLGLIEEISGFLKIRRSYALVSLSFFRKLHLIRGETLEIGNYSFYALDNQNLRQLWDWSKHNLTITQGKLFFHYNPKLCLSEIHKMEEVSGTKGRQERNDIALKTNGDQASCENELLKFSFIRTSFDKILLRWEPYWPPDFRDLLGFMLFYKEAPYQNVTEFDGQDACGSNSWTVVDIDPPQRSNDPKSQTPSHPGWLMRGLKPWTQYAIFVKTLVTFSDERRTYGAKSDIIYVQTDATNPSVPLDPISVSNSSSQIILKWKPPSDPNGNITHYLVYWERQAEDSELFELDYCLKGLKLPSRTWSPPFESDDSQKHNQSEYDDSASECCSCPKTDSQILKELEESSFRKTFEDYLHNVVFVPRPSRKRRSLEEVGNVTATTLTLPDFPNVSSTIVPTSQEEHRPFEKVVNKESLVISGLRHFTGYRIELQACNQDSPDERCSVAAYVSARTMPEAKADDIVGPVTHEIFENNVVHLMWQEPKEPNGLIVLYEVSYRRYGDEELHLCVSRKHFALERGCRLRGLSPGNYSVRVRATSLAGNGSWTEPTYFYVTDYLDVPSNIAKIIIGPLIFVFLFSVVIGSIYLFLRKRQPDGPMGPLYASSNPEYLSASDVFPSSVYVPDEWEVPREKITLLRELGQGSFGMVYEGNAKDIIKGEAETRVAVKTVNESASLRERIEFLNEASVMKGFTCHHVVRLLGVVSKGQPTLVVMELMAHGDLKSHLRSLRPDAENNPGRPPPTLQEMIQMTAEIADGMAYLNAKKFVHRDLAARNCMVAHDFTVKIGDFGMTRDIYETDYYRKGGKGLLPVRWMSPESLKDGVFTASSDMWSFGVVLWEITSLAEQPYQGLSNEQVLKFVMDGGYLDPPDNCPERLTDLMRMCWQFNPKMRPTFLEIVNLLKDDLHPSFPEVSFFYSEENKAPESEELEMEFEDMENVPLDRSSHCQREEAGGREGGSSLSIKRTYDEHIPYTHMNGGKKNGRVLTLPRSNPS

Turning to “deletion mutant of GRK2 lacking the RGS domain”, the “insulin-induced GLUT4 translocation after nuclear microinjection of the expression vector” value (from here on “insulin-induced GLUT4 translocation”) in series [1] is on record as “overexpression of delta-GRK2 had no effect”.

For the molecule “kinase deficient (K220R) GRK2, overexpressed (adenovirus or plasmid vector)”, in series [1], the “Gαq/11 tyrosine phosphorylation stimulated by ET-1 or insulin (PY20 immunoprecipitation, anti-Gαq/11 blot)” value is “both WT- and KD-GRK2 overexpression inhibited Gαq/11 tyrosine phosphorylation stimulated by ET-1 or insulin”; the “insulin-induced GLUT4 translocation” value is “overexpression of either WT- or KD-GRK2 by nuclear microinjection inhibited insulin-induced GLUT4 translocation”; the “insulin-induced Gαq/11 tyrosine phosphorylation (PY20 immunoprecipitation, anti-Gαq/11 blot)” value is “overexpression of either WT- or KD-GRK2 inhibited insulin-induced Gαq/11 tyrosine phosphorylation”.

“wild type GRK2, overexpressed (adenovirus or plasmid vector)”: in series [1], the “Gαq/11 tyrosine phosphorylation stimulated by ET-1 or insulin (PY20 immunoprecipitation, anti-Gαq/11 blot)” value is “both WT- and KD-GRK2 overexpression inhibited Gαq/11 tyrosine phosphorylation stimulated by ET-1 or insulin”; the “insulin-induced GLUT4 translocation” value is given as “overexpression of either WT- or KD-GRK2 by nuclear microinjection inhibited insulin-induced GLUT4 translocation”; the “insulin-induced Gαq/11 tyrosine phosphorylation (PY20 immunoprecipitation, anti-Gαq/11 blot)” value is “overexpression of either WT- or KD-GRK2 inhibited insulin-induced Gαq/11 tyrosine phosphorylation”.

B1: G protein-coupled receptor kinase 2 (GRK2), endogenous protein of 3T3-L1 adipocytes (enzyme, UniProt Q99MK8 1-689, looked up)
chain: MADLEAVLADVSYLMAMEKSKATPAARASKKILLPEPSIRSVMQKYLEDRGEVTFEKIFSQKLGYLLFRDFCLNHLEEAKPLVEFYEEIKKYEKLETEEERVVRSREIFDSYIMKELLACSHPFSKNATEHVQGHLVKKQVPPDLFQPYIEEICQNLRGDVFQKFIESDKFTRFCQWKNVELNIHLTMNDFSVHRIIGRGGFGEVYGCRKADTGKMYAMKCLDKKRIKMKQGETLALNERIMLSLVSTGDCPFIVCMSYAFHTPDKLSFILDLMNGGDLHYHLSQHGVFSEADMRFYAAEIILGLEHMHNRFVVYRDLKPANILLDEHGHVRISDLGLACDFSKKRPHASVGTHGYMAPEVLQKGVAYDSSADWFSLGCMLFKLLRGHSPFRQHKTKDKHEIDRMTLTMAVELPDSFSPELRSLLEGLLQRDVNRRLGCLGRGAQEVKESPFFRSLDWQMVFLQKYPPPLIPPRGEVNAADAFDIGSFDEEDTKGIKLLDSDQELYRNFPLTISERWQQEVAETVFDTINAETDRLEARKKAKNKQLGHEEDYALGKDCIVHGYMSKMGNPFLTQWQRRYFYLFPNRLEWRGEGEAPQSLLTMEEIQSVEETQIKERKCLLLKIRGGKQFVLQCDSDPELVQWKKELRDAYREAQQLVQRVPKMKNKPRSPVVELSKVPLIQRGSANGL
notes: Precipitated from cell lysate with a rabbit polyclonal anti-GRK2 antibody; also called endogenous GRK2
Take B1: in series [2], the binding result is “no binding”.
